# In patent US20160122426A1 (DONG A SOCIO, published 2016):
# Where a chain is given by its changes, count along the chain named.
# T1: mouse VEGF (mouse, UniProt Q00731-2 27-190)
# T1 construct: Bought recombinant protein; also called mVEGF-A; mouse VEGF-A
# T1 sequence (looked up): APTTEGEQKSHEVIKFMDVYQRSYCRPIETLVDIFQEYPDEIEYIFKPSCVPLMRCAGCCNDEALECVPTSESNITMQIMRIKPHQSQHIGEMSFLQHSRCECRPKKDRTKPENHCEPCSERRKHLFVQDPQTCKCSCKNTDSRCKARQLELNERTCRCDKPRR
# T2: human VEGF-B (human, UniProt P49765-2 22-188, limits assumed)
# T2 construct: also called hVEGF-B
# T2 sequence (looked up): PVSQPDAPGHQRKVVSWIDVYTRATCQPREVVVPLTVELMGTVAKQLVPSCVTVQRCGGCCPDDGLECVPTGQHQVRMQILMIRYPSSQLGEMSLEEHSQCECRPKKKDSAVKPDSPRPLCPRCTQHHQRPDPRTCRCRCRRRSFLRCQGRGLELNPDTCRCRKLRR
# T3: human VEGF-C (human, UniProt P49767 103-227, limits assumed)
# T3 construct: also called hVEGF-C
# T3 sequence (looked up): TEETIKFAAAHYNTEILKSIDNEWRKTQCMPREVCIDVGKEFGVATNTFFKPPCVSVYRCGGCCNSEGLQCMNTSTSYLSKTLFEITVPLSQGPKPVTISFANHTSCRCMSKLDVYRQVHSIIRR
# T4: human VEGF-D (human, UniProt O43915 93-201, limits assumed)
# T4 construct: also called hVEGF-D
# T4 sequence (looked up): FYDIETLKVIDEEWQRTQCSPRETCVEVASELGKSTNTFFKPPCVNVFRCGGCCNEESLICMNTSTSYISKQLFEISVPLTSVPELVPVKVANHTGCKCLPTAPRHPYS
# T5: human placental growth factor (human, UniProt P49763-2 21-149, limits assumed)
# T5 construct: also called PlGF; PIGF
# T5 sequence (looked up): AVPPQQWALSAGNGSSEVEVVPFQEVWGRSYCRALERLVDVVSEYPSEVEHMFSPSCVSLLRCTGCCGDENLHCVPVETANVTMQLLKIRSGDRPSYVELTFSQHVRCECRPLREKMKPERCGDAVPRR
# B1: HF2-1 (antibody, V domains shown)
# VH: EVQLVESGGGLVQPGGSLRLSCAASNFVFRSHGMQWVRQAPGKGLEYVAGISSDGSWTGYGAAVEGRFTISRDDSKNTAYLQMNSLRAEDTAVYYCARDFSTGYGADSIDAWGQGTLVTVSS
# VL: DIQMTQSPSSLSASVGDRVTITCSGGSDSAYGYGWYQQKPGKAPKTLIYWDDKRPSGVPSRFSGSRSGTDFTLTISSLQPEDFATYYCGAWEYSGGVGIFGQGTKVEIK
# notes: also called HF-1
# B2: HF2-3 (antibody, V domains shown)
# VH: B1 VH with N26H, V28N, F29M, T58F, G59R, Y60V, G61A
# VL: B1 VL with V58A
# notes: also called HF-3
# B3: HF2-15 (antibody, V domains shown)
# VH: B1 VH with N26G, F29V, T58K, G59A, Y60T, G61A
# VL: B1 VL with D28Q, S29E, A30S, Y31L
# B4: HF2-12 (antibody, V domains shown)
# VH: B1 VH with N26Y, F27S, V28E, F29V, T58F, G59R, Y60V, G61A
# VL: B1 VL with D28M, S29E, A30P, Y31L
# B5: HF2-20 (antibody, V domains shown)
# VH: B1 VH with N26Y, F27M, V28E, F29Y, T58S, G59R, Y60V, G61D
# VL: B1 VL
# B6: HF2-23 (antibody, V domains shown)
# VH: B1 VH with N26G, V28R, F29I, T58F, G59S, Y60S, G61A
# VL: B1 VL with S29L, A30L, Y31L
# B7: HF2-13 (antibody, V domains shown)
# VH: B1 VH with N26G, V28L, F29V, T58Q, G59R, Y60V, G61N
# VL: B1 VL with S29L, A30L, Y31L
# B8: HF2-21 (antibody, V domains shown)
# VH: B1 VH with N26F, F27Q, V28Y, T58Y, G59R, Y60V, G61Q
# VL: B1 VL with D28M, S29E, A30P, Y31L
# B9: HF2-6 (antibody, V domains shown)
# VH: B1 VH with N26R, V28L, F29L, T58F, G59R, Y60V, G61A
# VL: B1 VL with D28M, S29E, A30P, Y31L
# B10: HF2-7 (antibody, V domains shown)
# VH: B1 VH with N26Q, V28W, F29I, T58F, G59R, Y60V, G61A
# VL: B1 VL with D28M, S29E, A30P, Y31L
# B11: HF2-22 (antibody, V domains shown)
# VH: B1 VH with N26G, V28R, F29I, T58F, G59R, Y60V, G61A
# VL: B1 VL with D28T, S29A, A30G, Y31V
# B12: HF2-24 (antibody, V domains shown)
# VH: B1 VH with N26R, V28N, F29M, T58V, G59K, Y60V, G61A
# VL: B1 VL with D28Q, S29E, A30S, Y31L
# B13: HF2-10 (antibody, V domains shown)
# VH: B1 VH with N26F, F27Q, V28Y, T58F, G59R, Y60V, G61A
# VL: B1 VL with D28M, S29E, A30P, Y31L
# B14: HF2-16 (antibody, V domains shown)
# VH: B1 VH with N26G, V28R, F29I, T58V, G59K, Y60V, G61A
# VL: B1 VL with D28I, S29E, A30P, Y31L
# B15: HF2-18 (antibody, V domains shown)
# VH: B1 VH with N26Y, F27W, V28A, T58F, G59S, Y60S, G61A
# VL: B1 VL with D28I, S29E, A30P, Y31L
# B16: HF2-2 (antibody, V domains shown)
# VH: B1 VH with N26R, V28N, F29M, T58E, G59R, Y60V
# VL: B1 VL
# B17: HF2-14 (antibody, V domains shown)
# VH: B1 VH with N26H, F27S, V28S, F29I, T58L, G59R, Y60Q, G61D
# VL: B1 VL
# B18: HF2-17 (antibody, V domains shown)
# VH: B1 VH with N26G, V28M, F29I, T58R, G59R, Y60H, G61S
# VL: B1 VL with D28I, S29E, A30P, Y31L
# Target: T6, human VEGF (human, UniProt P15692-4 27-191)
# T6 construct: Bought recombinant protein; also called hVEGF; human VEGF-A
# Assay: ELISA and BIAcore
row,fold affinity over mother clone F,Binder
1,≥ 10 times,B1
2,≥ 10 times,B2
3,≥ 10 times,B3
4,≥ 10 times,B4
5,≥ 10 times,B5
6,≥ 10 times,B6
7,≥ 10 times,B7
8,≥ 10 times,B8
9,≥ 10 times,B9
10,≥ 10 times,B10
11,≥ 10 times,B11
12,≥ 10 times,B12
13,≥ 10 times,B13
14,≥ 10 times,B14
15,≥ 10 times,B15
16,≥ 10 times,B16
17,≥ 10 times,B17
18,≥ 10 times,B18

# Target: T1, mouse VEGF
# Assay: ELISA and BIAcore
row,fold affinity over mother clone F,Binder
1,≥ 10 times,B1
2,≥ 10 times,B2
3,≥ 10 times,B3
4,≥ 10 times,B4
5,≥ 10 times,B5
6,≥ 10 times,B6
7,≥ 10 times,B7
8,≥ 10 times,B8
9,≥ 10 times,B9
10,≥ 10 times,B10
11,≥ 10 times,B11
12,≥ 10 times,B12
13,≥ 10 times,B13
14,≥ 10 times,B14
15,≥ 10 times,B15
16,≥ 10 times,B16
17,≥ 10 times,B17
18,≥ 10 times,B18

# Target: T6, human VEGF
# Assay: SPR (BIAcore X100), VEGF on CM5 chip, IgG injected, 1:1 Langmuir
# Description: Meanwhile, to measure the affinity, human VEGF and mouse VEGF were coupled to carboxymethylated dextran biosensor chips (CM5, GE) according to the manufacturer's instructions.
# The association and dissociation rates were expressed by the association and dissociation sensorgram, and calculated using a simple 1:1 Langmuir binding model (BIAcore X100 evaluation software, ver. 2.0).
Kd,koff,kon,Binder
< 1 pM,< 1e-06 s⁻¹,2.5e+06 M⁻¹ s⁻¹,B1
< 1 pM,< 1e-06 s⁻¹,1.3e+06 M⁻¹ s⁻¹,B2
≤ 9 pM,≤ 1e-05 s⁻¹,1.4e+06 M⁻¹ s⁻¹,B7
< 1 pM,< 1e-06 s⁻¹,1.6e+06 M⁻¹ s⁻¹,B9
16 pM,2.7e-05 s⁻¹,1.6e+06 M⁻¹ s⁻¹,B10
< 1 pM,< 1e-06 s⁻¹,1.6e+06 M⁻¹ s⁻¹,B13
< 1 pM,< 1e-06 s⁻¹,1.1e+06 M⁻¹ s⁻¹,B16
< 1 pM,< 1e-06 s⁻¹,1.3e+06 M⁻¹ s⁻¹,B17

# Target: T1, mouse VEGF
# Assay: ELISA, mouse VEGF coated, anti-human Fc-HRP, absorbance 450 nm [a]
row,EC50 (read off the curve),Binder
1,~0.08 µg/mL,B1

# Target: T2, human VEGF-B
# Assay: ELISA, 0.2 ug/ml protein coated, anti-human IgG-Fab-HRP, absorbance 650 nm; antibody concentration not shown
# Method: (§1) 0.2 μg/ml each of the respective proteins (hVEGF-A, mVEGF-A, hVEGF-B, hVEGF-C, hVEGF-D and PlGF) (R&D systems) were coated to the wells of ELISA plate, respectively. After blocking them with PBS containing 3% BSA and 0.05% Tween 20 for 30 min at 37° C., antibody clone proteins of increasing concentrations were incubated at 37° C. for 2 hr. Then, the wells were washed with PBS containing 3% BSA and 0.05% Tween 20 for 3 times, and anti-human IgG-Fab-HRP conjugate (Jackson Immunoresearch, USA) was added thereto and incubated for 1 hr at room temperature. Then they were washed with PBS containing 3% BSA and 0.05% Tween 20 for 3 times, and developed using TMB, and absorbance was measured at 650 nm.
row,binding result,Binder
1,no binding,B1

# Target: T3, human VEGF-C
# Assay: as above
# Method: as §1
row,binding result,Binder
1,no binding,B1

# Target: T4, human VEGF-D
# Assay: as above
# Method: as §1
row,binding result,Binder
1,no binding,B1

# Target: T5, human placental growth factor
# Assay: as above
# Method: as §1
row,binding result,Binder
1,no binding,B1

# Target: T6, human VEGF
# Assay: competition ELISA: human VEGF coated, 9 nM KDR ECD IgG-Fc (VEGFR2) added together with the antibody, bound receptor-Fc detected, absorbance 405 nm
# Method: 0.5 μg/ml of human VEGF was coated to 96-well ELISA plate and blocked with PBS solution containing 3% BSA and 0.05% Tween 20.
row,IC50 (read off the curve),Binder
1,~5000 pM,B1
